Reference: US11492376B2, “Toxoplasma gondii GRA8-derived recombinant peptides and composition for preventing or treating cancer comprising the same” (Industry—University Cooperation Foundation Hanyang …, priority 2019, dated 2022)

Tests used:
[1] = system: GRA8-ATP5A1/SIRT3 interaction; assay: GST pulldown of GRA8-ATP5A1/SIRT3 interaction in 293T cells; format: cell-based; details: 10 μM peptide, within 6 hours of incubation
Procedure: (§1) FIGS. 2A, 2B, 2C, 2D and 2E show the design and expression of an ATRAM-conjugated multifunctional GRA8 peptide (rATRAM-G8-M/AS)-based protein [(A) Subcellular fractionation of 293T cells was performed by expression of GST-GRA8 WT or incubation of WT rGRA8 with (1 μg/ml) BMDM and treatment with several Tat-GRA8 peptides for 6 hours (10 μM). Mitochondrial and cytosolic fractions were fractionated and analyzed for expression of GST by IB. The purity of the fractions was confirmed by blotting for VDAC (mitochondrial protein) and actin (cytosolic protein). (B) A mammalian GST-GRA8 construct was transfected into 293T cells for 12 hours with V5-ATP5A1 or Flag-SIRT3, and treated with several Tat-GRA8 peptides (10 μM) for 6 hours. The 293T cells were used for GST pulldown, followed by IB with αV5 or αFlag. WCL was used for IB with αGST, αV5, αFlag or αActin. (C) The schematic design of ATRAM-GRA8-M/AS and its mutants [ATRAM-G8-M/AS (SEQ ID NO: 1), ATRAM-G8-M (SEQ ID NO: 2), ATRAM (SEQ ID NO: 3)]. (D) 6×His-rATRAM-GRA8-M/AS purified with bacteria and its mutants were analyzed by Coomassie blue staining (left) or αHis immunoblotting (IB; right). (E) BMDM was incubated with rATRAM-GRA8-M/AS and its mutant (20 μg/ml) for indicated times, and cell viability was then measured by an MMT assay. Data represents four independent experiments with similar results (A, B, D and E)]. […]

[2] = system: mitochondrial targeting of GRA8; assay: Subcellular fractionation: mitochondrial localization of GRA8; format: cell-based; details: 10 μM peptide, within 6 hours of incubation; 293T cells or BMDM
Procedure: as §1

HCT116 cells = assay: MTT assay of cell viability, HCT116 cells; format: cell-based, human
Procedure: (§2) FIGS. 1A, 1B and 1C: confirms that rGRA8 treatment increases HCT116 cell death by mitochondria pathways [(A and B). Various cancer cells were incubated with WT rGRA8 (20 μg/ml) and its mutants for indicated times and then cell viability was measured by MTT analysis (upper) and αATP5A1, αSIRT3 or αActin immunoblotting (lower) was performed. […] The cells were incubated with WT rGRA8 for indicated times and subjected to IP with αLys-AC or αHis and IB with αATP5A1, αATP5C1, αSIRT3, αPGC-1, αPKCα or αActin. Data represents five independent experiments with similar results. Significant differences were determined by comparison with rVector treatment (** P<0.01; *** P<0.001)].
FIGS. 4A, 4B, 4C, 4D and 4E show HCT116 cell death by rATRAM-GRA8-M/AS-induced mitochondrial activation [(A and B) HCT116 cells were incubated with WT rGRA8 or rATRAM-GRA8-M/AS and its mutants for indicated times, and then cell viability was measured with an MTT assay. […] The cells were stimulated with rATRAM-GRA8-M/AS for 1 day and subjected to enzymatic activity of OXPHOS V, and (C) MitoTracker fluorescence signals were assessed by flow cytometry. (D) A bar graph indicates a mitochondrial mass (MFI), and (E) the mtDNA content of BMDM was measured by quantitative real-time PCR. The mtDNA content was normalized by nuclear DNA. Significant differences were determined by comparison with control treatment (** P<0.01; *** P<0.001). Data represents five independent experiments with similar results].
(§3) As described in Non-Patent Document 1, the cell viability for a non-treated group was measured by an MTT assay. After incubation for an indicated time, 5 mg/ml of a 3-(4,5-dimethyl thiazol-2-yl)-2,5-diphenyltetrazoliumbromide (MTT) solution was added to a medium, and the cells were further incubated for 4 hours. Subsequently, all of the medium was removed, the same volume of a dimethyl sulfoxide (DMSO) solution was added for 15 minutes to dissolve formazan. Using a UV/VIS spectrophotometer, each well of a plate was measured at 540 nm to measure relative cell viability.

HT-29 = assay: MTT assay of cell viability, HT-29 cells; format: cell-based, human; details: 20 μg/ml, over time
Procedure: as §2, §3

ATP5A1, SIRT3 and ATP5C1 = assay: Immunoprecipitation/immunoblotting in HCT116 cells; format: cell-based, human; details: IP/IB
Procedure: as §2
For immunoprecipitation, cells were obtained, and then lysed in an NP-40 buffer supplemented with a complete protease inhibitor cocktail (Roche). After pre-purification with A/G agarose beads at 4° C. for 1 hour, a whole cell lysate was used for immunoprecipitation with indicated antibodies. […]
For immunoblotting, polypeptides were subjected to electrophoresis (PAGE) with an SDS-polyacrylamide gel, and then transferred to a PVDF membrane (Bio-Rad) for separation. […] Antibody binding was visualized by chemiluminescence (ECL; Millipore) and detected by a Vilber chemiluminescence analyzer (Fusion SL 3; Vilber Lourmat).

HCT116 xenografts = assay: HCT116 xenograft mouse model, antitumor activity; format: in vivo, nude mouse; details: HCT116 xenograft mice

Molecule: GRKKRRQRRR-G-YRFTVQTTQN (GRKKRRQRRRGYRFTVQTTQN; Tat-GRA8-(260-269)) [Tat-GRA8 (aa 260-269)]
- prevention of GRA8-ATP5A1/SIRT3 interaction [1]: able to effectively prevent

Molecule: GRKKRRQRRR (Tat) [reference compound]
- blocking of mitochondrial targeting of GRA8 [2]: impossible

Molecule: GRKKRRQRRR-G-ATATTTTTTR (GRKKRRQRRRGATATTTTTTR; Tat-GRA8-(213-222)) [Tat-GRA8 (aa 213-222)]
- blocking of mitochondrial targeting of GRA8 [2]: can effectively block mitochondrial targeting

B1: rGRA8: recombinant His-tagged Toxoplasma gondii dense granule antigen 8, 269 amino acids; conventional GRA8-derived peptide (protein)
chain: MALPLRVSATVFVVFAVFGVARAMNGPLSYHPSSYGASYPNPSNPLHGMPKPENPVRPPPPGFHPSVIPNPPYPLGTPAGMPQPEVPPLQHPPPTGSPPAAAPQPPYPVGTPGMPQPEIPPVHRPPPPGFRPEVAPVPPYPVGTPTGMPQPEIPAVHHPFPYVTTTTTAAPRVLVYKIPYGGAAPPRAPPVPPRMGPSDISTHVRGAIRRQPATATTTTTTRNVLLRTAILAAAAATLIALFRQRPLFTEGVRMFPDFQYRFTVQTTQN
modifications: left off: small tags and cut ends
notes: recombinant His-tagged Toxoplasma gondii dense granule antigen 8, 269 amino acids; conventional GRA8-derived peptide
- cell death in HCT116 (HCT116 cells; 20 μg/ml, over time, MTT): induced cell death
- IC50 (HCT116 cell death) (HCT116 cells; HCT116 cells, MTT (FIG. 4A)): 20 µg/mL
- cell death in HT-29 (HT-29): induced cell death
- ATP5A1 deacetylation (ATP5A1, SIRT3 and ATP5C1): increased ATP5A1 deacetylation
- binding of rGRA8 to ATP5A1, SIRT3 and ATP5C1 (ATP5A1, SIRT3 and ATP5C1): significantly increased
- IC50 (antitumor activity in xenograft) (HCT116 xenografts): 10 mg/kg
